The chains are these.
B1: Azoarcus group I ribozyme (parent)
chain: GUGCCUUGCGCCGGGAAACCACGCAAGGGAUGGUGUCAAAUUCGGCGAAACCUAAGCGCCCGCCCGGGCGUAUGGCAACGCCGAGCCAAGCUUCGGCGCCUGCGCCGAUGAAGGUGUAGAGACUAGACGGCACCCACCUAAGGCAAACGCUAUGGUGAAGGCAUAGUCCAGGGAGUGGCGAAAGUCACACAAACCGG

For 84 variants, reverse-splicing fitness results are on record in the RNAGym collection of RNA variant scans (doi:10.1093/molbev/msab373).

Variants of B1 are the subject of this series. Kind of series: reverse-splicing fitness (ratio to wild type); higher = more active; in vitro selection; Mg2+ level not given. In outline:
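An in vitro group I ribozyme library with randomized positions was T7-transcribed and gel-purified. In triplicate, 10 pmol RNA in EPPS pH 7.5 was reacted with 50 pmoles of a 30-nt RNA substrate for 1 h at 37 °C across several added MgCl2 levels (1–48 mM), then stopped with EDTA. Products were reverse transcribed from a substrate-complementary primer, PCR-amplified and sequenced (HiSeq 4000). Fitness is a variant's read proportion after selection over that before, normalised to wild type.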
With C82U A120C A145G C150U C169G U176C, the reverse-splicing fitness is 0.0155.

On to C82U A111U A120U A145G C150U C169G U176C, for which the reverse-splicing fitness was determined as 0.00383. Next, C82A A111G A120C A145U C169U: 0.0135; A111C A120C C169A: 0.0116.

On to C82G A111U A120U C150U C169A U176G, for which the reverse-splicing fitness stood at 0.00241. Next, C82A A111G A120G A145U C150A C169U: 0.00754; C82G A111C A120U A145U C150A C169G U176A: 0.00297; C82A A111U C150G U176G: 0.00369. Next, A111U A120U A145C C150A C169A U176G: 0.00243. The same measure for C82U A111U A120G A145C C150G C169U U176G: 0.00495.

Take C82A A111C A120G A145C C150G C169A U176C: the reverse-splicing fitness is 0.00612. C82A A111U A120C A145C C150A C169G U176A: the reverse-splicing fitness came to 0.0385. As for C82G A111U A145U C150G U176G, the reverse-splicing fitness is 0.0057. Next, A111G A120U A145C C169A: 0.00532; A111C A120U A145G C150G C169A U176C: 0.009. Next, C82G A145G C150A U176A: 0.0509; C82U A111U A120G A145C C150U C169U U176C: 0.00897; C82A A111C A145C C150A C169A: 0.00835. Next, C82A A120U C150U U176G: 0.00609; C82A A111C A120C A145G C169G: 0.00846; C82A A120U C150A C169U: 0.00372. As for C82A A111C A120C A145U C150G C169A U176C, the reverse-splicing fitness is 0.0125. Next, C82G A111C A120U A145C C169G U176A: 0.00322; C82U A120C C169U U176C: 0.0166. The same measure for C82A A111C A120U A145G C169U: 0.00493.

For the variant C82G A111C A120U A145C C150U C169G U176C, the reverse-splicing fitness came to 0.00305. Next, C82A A111C A120C A145G C150U C169A U176A: 0.0159; C82U A120G A145C C169A U176A: 0.00959. The same measure for C82G A120C A145U C150A C169U: 0.00929; for C82A A111G A120C A145C C150A U176G: 0.00529. Consider C82G A111U A145U C169A U176C, for which the reverse-splicing fitness came to 0.011. As to C82U A111U A145G C169G U176C, the reverse-splicing fitness was found to be 0.027.

Turning to C82U A111U A120G A145C C169U U176A, the reverse-splicing fitness stood at 0.0194. Next, C82A A111G A145G C150U C169A U176A: 0.0167; C82G A111G A120C C150G C169A U176A: 0.0102; C82A A111C A120C C150G U176A: 0.00563. As to C82U A111U A120C A145C C150U C169U U176G, the reverse-splicing fitness was 0.00464.

Take C82U A111U A120C A145U C169G U176A: the reverse-splicing fitness was found to be 0.00882. A111C A120G A145G C169U: the reverse-splicing fitness is 0.167. Next, C82G A120G A145U C169G U176A: 0.0157; C82U A120C A145C C150G C169A U176A: 0.00866; A111C A145U U176C: 0.398. Next, C82G A111G C169U U176C: 0.0177; C82A A120G A145U C150U C169G: 0.0173; C82U A111U A145U C169G U176C: 0.0101. Regarding A111C A120G A145U C150G C169G, the reverse-splicing fitness was 0.0203. The same measure for A111U A120U A145G C150A U176G: 0.00868. As for C82A A111G A120C A145U C150G C169G, the reverse-splicing fitness worked out at 0.0075. The same measure for C82A A111G A120C C150U U176A: 0.0143. As for C82A A111C A120C C150G C169A U176A, the reverse-splicing fitness was 0.00991. The same measure for C82A A111G A120G C169G U176A: 0.0226. In the case of C82U A111C C150A U176A, the reverse-splicing fitness is 0.0143. Regarding C82U A111U A120C A145G C150U C169U U176A, the reverse-splicing fitness came out at 0.0159. The same measure for A111C A120C A145C C150U C169U U176G: 0.00555. As to C82U A111C A120C A145C C150U C169U U176A, the reverse-splicing fitness was 0.0145. Next, A111G A120C A145C C150A U176A: 0.0376. Next, C82U A111C A120G A145G C150G C169U U176A: 0.0116; C82A A111C A120C C150A C169A U176A: 0.0196; C82G A111C A120C A145U C150A C169A U176C: 0.0129. The same measure for C82U A111G A120U A145G U176G: 0.00369. With C82A A111G A120G A145G C150A C169A, the reverse-splicing fitness came out at 0.0103.

For C82U A111G A120C A145U C150A C169U U176G, the reverse-splicing fitness worked out at 0.00404.

For the variant C82A A111C A120C A145G C150G C169G U176C, the reverse-splicing fitness worked out at 0.0131. Turning to C82A A145U C150U C169U U176G, the reverse-splicing fitness stood at 0.00508.

With C82U A120U C169G U176C, the reverse-splicing fitness amounted to 0.00306. Next, C82G A111G A120U A145G C150U C169G U176A: 0.0105; C82G A111C A120G C150G U176A: 0.00843; C82G A111U A120U C150U C169G U176G: 0.00236. For the variant C82U A120C C150U U176G, the reverse-splicing fitness came out at 0.00855. The same measure for A111U A120U A145G C150G: 0.0631; for C82G A111C A120G A145U: 0.0164. C82U A120C A145C C169A U176C: the reverse-splicing fitness is 0.00368. Next, C82G A111G A120C A145G C150G U176A: 0.00724. As to C82G A111U A120G A145G C169A, the reverse-splicing fitness worked out at 0.0111. The same measure for C82G A111G A120C A145C C169G U176A: 0.0254; for C82U A111U A120G A145U C150U C169A U176A: 0.0127; for C82A A111G A120U A145C C150U U176C: 0.00422. Turning to A111G C169A U176C, the reverse-splicing fitness was 0.0226. For A111C A120G A145U C150U C169G, the reverse-splicing fitness amounted to 0.133. Next, A111U C169G: 0.0649; C82G A111G A120C A145G C169A U176G: 0.00503; C82G A111G A120C A145G C169A U176C: 0.0188. Regarding C82A A111G A120U A145C C150U C169U U176A, the reverse-splicing fitness came to 0.0026. The same measure for C82U A111G A120G A145U C150A C169A U176A: 0.013.
